From the Human Domainome abundance scans (Beltran et al. 2025)
± gives the uncertainty stated by the source.

B1: Double-stranded RNA-specific adenosine deaminase, residues 296 to 358; numbered along this chain, P55265 (parent)
chain: MAEIKEKICDYLFNVSDSSALNLAKNIGLTKARDINAVLIDMERQGDVYRQGTTPPIWHLTDK

Variants of: B1
Experiment: abundance fitness (aPCA) (normalised: wild type 0, dead -1); higher = more abundant; growth selection in yeast, the domain comes from the species named
Details: Homo sapiens

Compared with MAEIKEKICDYLFNVSDSSALNLAKNIGLTKARPINAVLIDMERQGDVYRQGTTPPIWHLTDK [D34P], MAEIKEKICDYLFNVSDSSALNLAKNIGLTKARSINAVLIDMERQGDVYRQGTTPPIWHLTDK [D34S] is higher in abundance fitness: -0.541 ± 0.073 for the first, -0.397 ± 0.055 for the second.

MAEIKEKICDYLFNVSDSSALNLAKNIGLTKARIINAVLIDMERQGDVYRQGTTPPIWHLTDK [D34I] and MAEIKEKICDYLFNVSDSSALNLAKNIGLTKARKINAVLIDMERQGDVYRQGTTPPIWHLTDK [D34K] are within error of each other in abundance fitness: -0.422 ± 0.13 for the first, -0.518 ± 0.079 for the second.

Going from MAEIKEKICDYLFNVSDSSALNLAKNIGLTKARFINAVLIDMERQGDVYRQGTTPPIWHLTDK [D34F] to MAEIKEKICDYLFNVSDSSALNLAKNIGLTKARLINAVLIDMERQGDVYRQGTTPPIWHLTDK [D34L], the abundance fitness rises from -0.75 ± 0.09 to -0.444 ± 0.049.

MAEIKEKICDYLFNVSDSSALNLAKNIGLTKARRINAVLIDMERQGDVYRQGTTPPIWHLTDK [D34R] and MAEIKEKICDYLFNVSDSSALNLAKNIGLTKARGINAVLIDMERQGDVYRQGTTPPIWHLTDK [D34G] are within error of each other in abundance fitness: -0.699 ± 0.055 for the first, -0.592 ± 0.067 for the second.

Compared with MAEIKEKICDYLFNVSDSSALNLAKNIGLTKARCINAVLIDMERQGDVYRQGTTPPIWHLTDK [D34C], MAEIKEKICDYLFNVSDSSALNLAKNIGLTKARQINAVLIDMERQGDVYRQGTTPPIWHLTDK [D34Q] is higher in abundance fitness: -0.978 ± 0.18 for the first, -0.283 ± 0.073 for the second.

Compared with MAEIKEKICDYLFNVSDSSALNLAKNIGLTKARAINAVLIDMERQGDVYRQGTTPPIWHLTDK [D34A], MAEIKEKICDYLFNVSDSSALNLAKNIGLTKARTINAVLIDMERQGDVYRQGTTPPIWHLTDK [D34T] is lower in abundance fitness: -0.243 ± 0.054 for the first, -0.724 ± 0.11 for the second.

Going from MAEIKEKICDYLFNVSDSSALNLAKNIGLTKARHINAVLIDMERQGDVYRQGTTPPIWHLTDK [D34H] to MAEIKEKICDYLFNVSDSSALNLAKNIGLTKARMINAVLIDMERQGDVYRQGTTPPIWHLTDK [D34M], the abundance fitness rises from -0.578 ± 0.079 to -0.333 ± 0.051.

Going from MAEIKEKICDYLFNVSDSSALNLAKNIGLTKARWINAVLIDMERQGDVYRQGTTPPIWHLTDK [D34W] to MAEIKEKICDYLFNVSDSSALNLAKNIGLTKASDINAVLIDMERQGDVYRQGTTPPIWHLTDK [R33S], the abundance fitness rises from -0.984 ± 0.12 to 0.342 ± 0.048.

First: MAEIKEKICDYLFNVSDSSALNLAKNIGLTKAVDINAVLIDMERQGDVYRQGTTPPIWHLTDK [R33V]
Second: MAEIKEKICDYLFNVSDSSALNLAKNIGLTKANDINAVLIDMERQGDVYRQGTTPPIWHLTDK [R33N]
The abundance fitness of the first is higher: 0.327 ± 0.058 for the first, 0.195 ± 0.072 for the second.

Going from MAEIKEKICDYLFNVSDSSALNLAKNIGLTKAADINAVLIDMERQGDVYRQGTTPPIWHLTDK [R33A] to MAEIKEKICDYLFNVSDSSALNLAKNIGLTKAPDINAVLIDMERQGDVYRQGTTPPIWHLTDK [R33P], the abundance fitness falls from 0.365 ± 0.052 to -0.272 ± 0.071.

MAEIKEKICDYLFNVSDSSALNLAKNIGLTKAFDINAVLIDMERQGDVYRQGTTPPIWHLTDK [R33F] and MAEIKEKICDYLFNVSDSSALNLAKNIGLTKAKDINAVLIDMERQGDVYRQGTTPPIWHLTDK [R33K] are within error of each other in abundance fitness: 0.19 ± 0.085 for the first, 0.056 ± 0.064 for the second.

MAEIKEKICDYLFNVSDSSALNLAKNIGLTKAGDINAVLIDMERQGDVYRQGTTPPIWHLTDK [R33G] and MAEIKEKICDYLFNVSDSSALNLAKNIGLTKATDINAVLIDMERQGDVYRQGTTPPIWHLTDK [R33T] are within error of each other in abundance fitness: 0.207 ± 0.04 for the first, 0.263 ± 0.052 for the second.

Compared with MAEIKEKICDYLFNVSDSSALNLAKNIGLTKAYDINAVLIDMERQGDVYRQGTTPPIWHLTDK [R33Y], MAEIKEKICDYLFNVSDSSALNLAKNIGLTKAEDINAVLIDMERQGDVYRQGTTPPIWHLTDK [R33E] is higher in abundance fitness: 0.185 ± 0.074 for the first, 0.564 ± 0.085 for the second.

Going from MAEIKEKICDYLFNVSDSSALNLAKNIGLTKACDINAVLIDMERQGDVYRQGTTPPIWHLTDK [R33C] to MAEIKEKICDYLFNVSDSSALNLAKNIGLTKADDINAVLIDMERQGDVYRQGTTPPIWHLTDK [R33D], the abundance fitness rises from 0.157 ± 0.05 to 0.417 ± 0.074.

MAEIKEKICDYLFNVSDSSALNLAKNIGLTKALDINAVLIDMERQGDVYRQGTTPPIWHLTDK [R33L] and MAEIKEKICDYLFNVSDSSALNLAKNIGLTKAHDINAVLIDMERQGDVYRQGTTPPIWHLTDK [R33H] are within error of each other in abundance fitness: -0.028 ± 0.046 for the first, 0.094 ± 0.14 for the second.

Going from MAEIKEKICDYLFNVSDSSALNLAKNIGLTKAIDINAVLIDMERQGDVYRQGTTPPIWHLTDK [R33I] to MAEIKEKICDYLFNVSDSSALNLAKNIGLTKTRDINAVLIDMERQGDVYRQGTTPPIWHLTDK [A32T], the abundance fitness falls from 0.262 ± 0.093 to -0.018 ± 0.086.

Going from MAEIKEKICDYLFNVSDSSALNLAKNIGLTKKRDINAVLIDMERQGDVYRQGTTPPIWHLTDK [A32K] to MAEIKEKICDYLFNVSDSSALNLAKNIGLTKPRDINAVLIDMERQGDVYRQGTTPPIWHLTDK [A32P], the abundance fitness rises from -0.37 ± 0.096 to -0.162 ± 0.065.

Compared with MAEIKEKICDYLFNVSDSSALNLAKNIGLTKVRDINAVLIDMERQGDVYRQGTTPPIWHLTDK [A32V], MAEIKEKICDYLFNVSDSSALNLAKNIGLTKSRDINAVLIDMERQGDVYRQGTTPPIWHLTDK [A32S] is lower in abundance fitness: 0.108 ± 0.054 for the first, -0.103 ± 0.056 for the second.

Going from MAEIKEKICDYLFNVSDSSALNLAKNIGLTKMRDINAVLIDMERQGDVYRQGTTPPIWHLTDK [A32M] to MAEIKEKICDYLFNVSDSSALNLAKNIGLTKLRDINAVLIDMERQGDVYRQGTTPPIWHLTDK [A32L], the abundance fitness rises from 0.088 ± 0.067 to 0.25 ± 0.054.

First: MAEIKEKICDYLFNVSDSSALNLAKNIGLTKNRDINAVLIDMERQGDVYRQGTTPPIWHLTDK [A32N]
Second: MAEIKEKICDYLFNVSDSSALNLAKNIGLTKRRDINAVLIDMERQGDVYRQGTTPPIWHLTDK [A32R]
The abundance fitness of the first is higher: -0.232 ± 0.095 for the first, -0.485 ± 0.067 for the second.

MAEIKEKICDYLFNVSDSSALNLAKNIGLTKIRDINAVLIDMERQGDVYRQGTTPPIWHLTDK [A32I] and MAEIKEKICDYLFNVSDSSALNLAKNIGLTKQRDINAVLIDMERQGDVYRQGTTPPIWHLTDK [A32Q] are within error of each other in abundance fitness: 0.076 ± 0.15 for the first, -0.034 ± 0.069 for the second.

MAEIKEKICDYLFNVSDSSALNLAKNIGLTKYRDINAVLIDMERQGDVYRQGTTPPIWHLTDK [A32Y] showed an abundance fitness of -0.088 ± 0.079.
